Measurements published in US10266565B2, “Peptide mimetic ligands of polo-like kinase 1 polo box domain and methods of use” (The United States of America, as represented by the …, priority 2011, dated 2019).
“Also recorded” adds a separate entry of the source. Values belong to the molecule of their own block, whether it stands above or below them. Where a SMILES comes first, the peptide text is derived from it. Where no end group is shown, it is not given here. [ ]: non-standard residue; d: D form. The star is where a group is joined. His(π-(CH2)8Ph) = N[C@@H](Cc1cncn1CCCCCCCCc1ccccc1)C(=O)O; Abu(3R-Me,4-PO3H2) = C[C@@H](CP(=O)(O)O)[C@H](N)C(=O)O; CH3O(CH2CH2O)7C2H4CO = COCCOCCOCCOCCOCCOCCOCCOCCC(=O)*; pT = C[C@@H](OP(=O)(O)O)[C@H](N)C(=O)O; PEG = not defined here

Legend:
Plk2 = biological target: T1, Plk2 (Mus musculus, UniProt P53351, K108M); test: Peptide pull-down assay with bead-immobilized peptides, Plk2; format: binding
T1 construct: expressed in transfected cells
T1 sequence (P53351 whole entry K108M): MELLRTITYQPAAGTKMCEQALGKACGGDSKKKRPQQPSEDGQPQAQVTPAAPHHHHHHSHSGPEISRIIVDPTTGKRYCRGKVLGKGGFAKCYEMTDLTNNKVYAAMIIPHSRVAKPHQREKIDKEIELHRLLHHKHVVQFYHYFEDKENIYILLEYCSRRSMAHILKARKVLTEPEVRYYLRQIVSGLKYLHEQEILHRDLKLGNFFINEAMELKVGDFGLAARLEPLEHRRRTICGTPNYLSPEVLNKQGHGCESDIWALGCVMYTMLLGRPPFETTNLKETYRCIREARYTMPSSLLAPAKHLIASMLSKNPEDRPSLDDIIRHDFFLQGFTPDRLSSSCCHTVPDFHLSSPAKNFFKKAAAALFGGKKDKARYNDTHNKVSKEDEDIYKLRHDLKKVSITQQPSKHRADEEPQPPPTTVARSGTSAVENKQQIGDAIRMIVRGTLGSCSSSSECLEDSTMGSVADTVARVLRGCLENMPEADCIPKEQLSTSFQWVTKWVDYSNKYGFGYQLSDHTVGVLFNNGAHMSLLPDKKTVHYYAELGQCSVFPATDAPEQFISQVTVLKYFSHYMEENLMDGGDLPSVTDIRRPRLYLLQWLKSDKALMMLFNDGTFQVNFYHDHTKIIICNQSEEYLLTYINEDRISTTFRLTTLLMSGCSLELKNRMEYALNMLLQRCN
Experimental: After incubating the cell lysates prepared in TBSN buffer {20 mM Tris-Cl (pH8.0), 150 mM NaCl, 0.5% Np-40, 5 mM EGTA, 1.5 mM EDTA, 20 mM p-nitrophenylphosphate and protease inhibitor cocktail (Roche, Nutley, N.J.)} with the bead-immobilized ligands for 2 h at 4° C., the ligand-associating proteins were precipitated, washed, boiled in sodium dodecyl sulfate (SDS) sample buffer, separated by 8% SDS-polyacrylamide gel electrophoresis (PAGE), and then subjected to immunoblotting analysis with anti-Flag antibody and the enhanced chemilunimescence (ECL) detection system (Pierce). The same membrane was also stained with Coomassies (CBB). Signal intensities were quantified using Image J program.
To investigate the binding specificity of p-T78 peptides to various Plks, Flag-Plk1 (K82M), Flag-Plk2(K108M)3 or Flag-Plk3(K52R) (a gift of Wei Dai, New York University School of Medicine, NY) construct was first transfected into HeLa cells. Cellular lysates were prepared as above, mixed, and then incubated in TBSN buffer with the immobilized peptides indicated.

HeLa cells [1] = test: Direct treatment of cultured HeLa cells (mitotic arrest, apoptotic cell death, Plk1 localization); format: cell-based; settings: 200 μM
Plk1 = biological target: T2, Plk1 (Homo sapiens, UniProt P53350); test: Peptide pull-down assay with bead-immobilized peptides, Plk1; format: binding; settings: for Plk1 binding / precipitation in pull-down, in words: mitotic cell lysates
T2 construct: we used total lysates prepared from mitotic HeLa cells; endogenous in cells; host or cells: mitotic (nocodazole-arrested) HeLa cells
T2 sequence (P53350 2-603): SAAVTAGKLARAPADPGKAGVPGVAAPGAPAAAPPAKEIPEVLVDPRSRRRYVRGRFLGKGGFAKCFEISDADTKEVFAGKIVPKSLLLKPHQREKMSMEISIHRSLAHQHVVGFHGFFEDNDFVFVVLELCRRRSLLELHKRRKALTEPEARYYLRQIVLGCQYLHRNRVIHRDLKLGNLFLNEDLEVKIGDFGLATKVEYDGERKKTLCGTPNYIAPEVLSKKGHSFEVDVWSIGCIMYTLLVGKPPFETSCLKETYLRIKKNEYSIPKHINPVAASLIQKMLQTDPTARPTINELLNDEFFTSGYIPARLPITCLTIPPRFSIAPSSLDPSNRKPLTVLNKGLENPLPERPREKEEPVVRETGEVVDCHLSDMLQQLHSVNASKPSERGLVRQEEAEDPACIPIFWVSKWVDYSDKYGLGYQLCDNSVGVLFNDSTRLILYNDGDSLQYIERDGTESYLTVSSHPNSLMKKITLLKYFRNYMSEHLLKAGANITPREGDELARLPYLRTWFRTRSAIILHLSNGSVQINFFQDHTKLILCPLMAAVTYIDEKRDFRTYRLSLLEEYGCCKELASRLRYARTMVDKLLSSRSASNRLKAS
Experimental: For Plk1 pull-down assays with immobilized peptides, we used total lysates prepared from mitotic HeLa cells. […] Cells treated with 200 ng/ml of nocodazole for 16 h were lysed in TBSN buffer {20 mM Tris-Cl (pH8.0), 150 mM NaCl, 0.5% NP-40, 5 mM EGTA, 1.5 mM EDTA, 0.5 mM Na3VO4, 20 mM p-nitrophenyl phosphate, and protease inhibitor cocktail (Roche, Nutley, N.J.)}, and then clarified by centrifugation at 15,000×g for 20 min at 4° C. The resulting lysates were incubated with bead-immobilized peptides (40 μM per binding) for 2 h, precipitated, washed, and then boiled in sodium dodecyl sulfate (SDS) sample buffer to elute the associated proteins. Samples were separated by 10% SDS-polyacrylamide gel electrophoresis (PAGE), and then either stained with silver or transferred to PVDF membrane for immunoblotting analysis with anti-Plk1 antibody using the enhanced chemiluminescence (ECL) detection system (Pierce). […]

Plk1 PBD = Plk1 PBD (Homo sapiens, UniProt P53350); test: Isothermal titration calorimetry with recombinant Plk1 PBD; format: binding
Plk1 PBD, sequence (P53350 326-603): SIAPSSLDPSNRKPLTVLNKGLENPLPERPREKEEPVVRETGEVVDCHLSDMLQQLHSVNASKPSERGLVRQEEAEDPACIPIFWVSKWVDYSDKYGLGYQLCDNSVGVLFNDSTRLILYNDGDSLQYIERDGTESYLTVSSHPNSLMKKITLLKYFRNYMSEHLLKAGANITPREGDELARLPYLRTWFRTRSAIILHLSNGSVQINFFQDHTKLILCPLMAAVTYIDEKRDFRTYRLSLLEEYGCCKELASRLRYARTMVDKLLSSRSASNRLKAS

[2] = biological target: Plk1 PBD-p-Cdc25C interaction (Homo sapiens, UniProt P53350); test: Competition of the PBD-p-Cdc25C interaction in mitotic HeLa lysates; format: binding; settings: GST-PBD
Plk1 PBD-p-Cdc25C interaction, sequence (P53350 326-603 limits assumed): as the sequence (P53350 326-603) above
Experimental: For p-Cdc25C pull-down assays, either bead-bound GST-PBD or the corresponding GST-PBD(H538A K540M) mutant was incubated with mitotic HeLa lysates in TBSN buffer supplemented with 2 mM DTT. To test the ability of the indicated peptides to compete the PBD-p-Cdc25C interaction, lysates were pre-incubated with GST-PBD for 1.5 h prior to the addition of the indicated peptides. Lysates were then incubated for additional 1.5 h, washed in the binding buffer, and then analyzed. For competition of the interaction between p-Cdc25C and endogenous Plk1, mitotic lysates were prepared in TBSN and incubated with the indicated peptides for 1 h before subjecting to immunoprecipitation with anti-Plk1 antibody.

[3] = biological target: recombinant Plk1 PBD (full length PBD, calorimetry) (UniProt P53350); test: ITC, 25 C; 5-mer LHSpTA (SEQ ID NO: 3)
recombinant Plk1 PBD (full length PBD, calorimetry), sequence (P53350 326-603 limits assumed): as the sequence (P53350 326-603) above

Plk2 PBD = biological target: T3, Plk2 PBD (Homo sapiens, UniProt Q9NYY3); test: Isothermal titration calorimetry with recombinant Plk2 PBD; settings: titrated into Plk2 PBD
T3 sequence (Q9NYY3 373-685): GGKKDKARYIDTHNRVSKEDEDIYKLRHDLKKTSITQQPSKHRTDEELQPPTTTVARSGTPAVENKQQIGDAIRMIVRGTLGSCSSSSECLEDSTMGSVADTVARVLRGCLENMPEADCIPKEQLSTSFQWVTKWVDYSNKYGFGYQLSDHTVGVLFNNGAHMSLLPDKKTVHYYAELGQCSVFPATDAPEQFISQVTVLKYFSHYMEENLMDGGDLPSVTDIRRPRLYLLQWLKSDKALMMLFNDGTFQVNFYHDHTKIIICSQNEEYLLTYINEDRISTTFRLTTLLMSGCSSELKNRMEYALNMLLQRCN

HeLa cells [4] = test: Microinjection of peptides into HeLa cells; format: cell-based; settings: for Plk1 localization at centrosomes and kinetochores: microinjection; for mitotic arrest / cell cycle effect, in words: peptide introduced into the cells
Experimental: HeLa cells were cultured as subconfluent monolayers under the conditions recommended by American Type Culture Collection (Manassas, Va.). […] No mitotic exit was observed during the period of 10 min BMI-1026 treatment. For microinjection experiments with the Pmab-containing mimetic peptides, cells were arrested for 16 h with 2.5 mM thymidine (Sigma) and released into fresh medium. Two hours after release from the S phase block, the indicated peptides (2.5 mM stock in PBS) were microinjected into the cells using Eppendorf® Transjector 5246 (Eppendorf®, Westbury, N.Y.) at the 150 hPa pressure level and the 0.5 second injection time. All the cells in a single grid were injected and then further incubated to monitor cell cycle progression. For microinjection experiments with the F2Pmab-containing mimetic peptides, cells were arrested with 2.5 mM thymidine for 16 h twice with a 9 h release interval, and then released into fresh medium. Seven hours after release from the G1/S phase block, the indicated peptides (4 mM stock in PBS) were microinjected similarly as above. Where indicated, peptides containing the final concentration of 30 ng/μl of pEGFP-C1 vector (Clontech®, Mountain View, Calif.) were used to visualize the injected cells.
Four hours after microinjection, cells were fixed and subjected to immunostaining analyses as described below.
Similar methods were used for the experiments shown in FIG. 16 using the peptides indicated. HeLa cells were arrested at the G1/S boundary by double thymidine treatment and released into fresh medium. […] Co-injected EGFP plasmid provided a convenient marker to identify the microinjected cells.
Indirect immunostaining was carried out as described previously (5) using anti-Plk1 antibody (Santa Cruz Biotechnologies, Santa Cruz, Calif.) and anti-CREST antiserum (Cortex Biochem, San Leandro, Calif.). All the appropriate secondary antibodies were purchased from Jackson ImmunoResearch Laboratories, Inc. (West Grove, Pa.). Biotinylated F2Pmab-positive cells were detected by co-staining with FITC-conjugated Streptavidin (Invitrogen®, Carlsbad, Calif.). Chromosomes were visualized with 4′,6-diamidino-2-phenylindole (DAPI) (Sigma). Digital images were collected with a Zeiss LSM510 confocal microscope. For the quantification of the fluorescence signal intensities, images of unsaturated fluorescence signals were acquired with the same laser intensity at 512×512 pixels and 12-bit resolution. Fluorescence intensities for localized signals were determined after subtracting the background signal intensities using Zeiss AIM confocal software.

Flag-Plk3 (K52R) = biological target: T4, Flag-Plk3 (K52R) (UniProt Q9H4B4 40-646, K52R); test: pull-down with bead-immobilized peptide, mixed Flag-Plk1/2/3 lysates (293T)
T4 construct: In lysates of transfected cells
T4 sequence (Q9H4B4 40-646 K91R): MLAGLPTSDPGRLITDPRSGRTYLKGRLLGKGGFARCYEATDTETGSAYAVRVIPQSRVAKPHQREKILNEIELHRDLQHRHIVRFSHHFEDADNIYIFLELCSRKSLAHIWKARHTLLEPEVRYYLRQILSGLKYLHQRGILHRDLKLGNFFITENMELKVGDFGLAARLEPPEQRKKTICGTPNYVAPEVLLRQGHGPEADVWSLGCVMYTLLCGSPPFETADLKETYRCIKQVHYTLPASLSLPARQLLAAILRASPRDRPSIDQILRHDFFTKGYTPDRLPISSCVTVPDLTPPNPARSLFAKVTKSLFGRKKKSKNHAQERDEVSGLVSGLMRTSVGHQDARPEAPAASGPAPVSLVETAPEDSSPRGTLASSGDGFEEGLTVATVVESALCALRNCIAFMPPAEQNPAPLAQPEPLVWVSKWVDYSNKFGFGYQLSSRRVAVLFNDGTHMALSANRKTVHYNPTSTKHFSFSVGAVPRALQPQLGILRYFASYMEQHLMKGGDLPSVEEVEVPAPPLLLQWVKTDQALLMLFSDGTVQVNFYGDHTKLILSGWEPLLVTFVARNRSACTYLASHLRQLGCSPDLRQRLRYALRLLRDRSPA

[5] = biological target: Plk1 PBD (construct and assay format not stated at these places) (UniProt P53350); test: assay not given
Plk1 PBD (construct and assay format not stated at these places), sequence (P53350 326-603 limits assumed): as the sequence (P53350 326-603) above

[6] = biological target: Plk1 (endogenous, HeLa cells) (UniProt P53350); test: pull-down with bead-immobilized peptide, mitotic HeLa lysate
Plk1 (endogenous, HeLa cells), sequence (P53350 2-603 limits assumed): as the sequence (P53350 2-603) above

Molecule: CSCC[C@H](N)C(=O)N[C@@H](CCC(N)=O)C(=O)N[C@@H](CO)C(=O)N[C@H](C(=O)N1CCC[C@H]1C(=O)N[C@@H](CC(C)C)C(N)=O)[C@@H](C)OP(=O)(O)O [MQSpTPL, reference compound]
- Plk2 precipitation as efficiency of Plk1 precipitation (Plk2; lysates with similar levels of Plk1, Plk2, Plk3): ~27%

Molecule: COCCOCCOCCOCCOCCOCCOCCOCCC(=O)N1CCC[C@H]1C(=O)N[C@@H](CC(C)C)C(=O)N[C@@H](Cc1cnc[nH]1)C(=O)N[C@@H](C)C(=O)N[C@H](C(N)=O)[C@@H](C)CP(=O)(O)O [PEG-1* (S/A)] ({CH3O(CH2CH2O)7C2H4CO}-PLHA[Abu(3R-Me,4-PO3H2)]-NH2)
- Plk1 delocalization and misaligned chromosomes (HeLa cells [1]): not
- mitotic arrest / apoptotic cell death / cellular response (HeLa cells [1]): not

Molecule: COCCOCCOCCOCCOCCOCCOCCOCCC(=O)N1CCC[C@H]1C(=O)N[C@@H](CC(C)C)C(=O)N[C@@H](Cc1cnc[nH]1)C(=O)N[C@@H](CO)C(=O)N[C@H](C(N)=O)[C@@H](C)CP(=O)(O)O [PEG-1*]
- Plk1 delocalization and misaligned chromosomes (HeLa cells [1]): only mild Plk1 delocalization with a moderate level of misaligned chromosomes
- mitotic arrest / apoptotic cell death / cellular response (HeLa cells [1]): weak but significant level of mitotic arrest

Molecule: COCCOCCOCCOCCOCCOCCOCCOCCC(=O)N1CCC[C@H]1C(=O)N[C@@H](CC(C)C)C(=O)N[C@@H](Cc1cncn1CCCCCCCCc1ccccc1)C(=O)N[C@@H](C)C(=O)N[C@H](C(N)=O)[C@@H](C)CP(=O)(O)O [PEG-4j* (S/A)] ({CH3O(CH2CH2O)7C2H4CO}-PL[His(π-(CH2)8Ph)]A[Abu(3R-Me,4-PO3H2)]-NH2)
- Plk1 delocalization and misaligned chromosomes (HeLa cells [1]): not
- mitotic arrest / apoptotic cell death / cellular response (HeLa cells [1]): did not

Molecule: HSpT: "HSpT lacking both the Pro and Leu residues" (His-Ser-[pT])
- Plk1 binding / precipitation in pull-down, in words (Plk1): did not exhibit any significant level of binding

Molecule: LHSpTAI: "the analogous p-T78 peptide (LHSpTAI (SEQ ID NO: 17))" (LHS[pT]AI)
- binding affinity by calorimetry, in words (Plk1 PBD): slightly higher affinities than the 5-mer peptides
- Plk1 binding / precipitation in pull-down, in words (Plk1): equivalent to that of the former

Molecule: MLHSpT: "a Pro-4 to Met-4 mutant, MLHSpT (SEQ ID NO: 18)" (MLHS[pT])
- Plk1 binding / precipitation in pull-down, in words (Plk1): greatly diminished level of Plk1 PBD binding

Molecule: Pmab(S77A): the S77A mutants of the Pmab- and the F2Pmab-containing peptides (24 and 26, respectively) (PLHA[Abu(3R-Me,4-PO3H2)])
- Plk1 localization at centrosomes and kinetochores (HeLa cells [4]): not
- mitotic arrest / cell cycle effect, in words (HeLa cells [4]): not

Molecule: non-phospho T78 peptide: "the respective non-phospho PLHST (SEQ ID NO: 11) control peptide"
- Plk1 localization at centrosomes and kinetochores (HeLa cells [4]): not
- mitotic arrest / cell cycle effect, in words (HeLa cells [4]): proceeded through the cell cycle normally

Molecule: LHS[pT] [LHSpT]
- fold weaker binding than PLHSpT [5]: 50 fold
- fold diminished binding relative to PLHSpT [6]: 7 fold

Now from value to molecule, other results behind:

- binding affinity by calorimetry, in words (Plk1 PBD): much lower affinities
- disruption of the pre-formed PBD-p-Cdc25C complex [2]: disrupted the complex weakly
- Plk1 binding / precipitation in pull-down, in words (Plk1): bound to Plk1 better than SpTAI
Molecule: HSpTA: 4-mer p-T78 peptide "HSpTA (SEQ ID NO: 15)" (HS[pT]A)

- Plk1 binding / precipitation in pull-down, in words (Plk1): bound to Plk1 only weakly
Molecule: HSpTAI: "HSpTAI, lacking both Pro and Leu but instead bearing two additional C-terminal residues following the SpT motif" (HS[pT]AI)

- binding affinity by calorimetry, in words (Plk1 PBD): much lower affinities
- weaker binding than PLHSpT (Plk1 PBD; assay not given): ~50 fold
- diminished binding affinity to Plk1 relative to PLHSpT (Plk1): ~7 fold
- Plk1 binding / precipitation in pull-down, in words (Plk1): bound to Plk1 better than SpTAI
Molecule: LHSpT: "LHSpT (SEQ ID NO: 14) lacking the N-terminal Pro" (LHS[pT])
- disruption of the pre-formed PBD-p-Cdc25C complex [2]: much less effective than PLHSpT; also recorded: disrupted the complex weakly

- Kd [3]: 450 nM
Molecule: LHSpTA (peptide)

- Plk1 binding / precipitation in pull-down, in words (Plk1): abolished the Plk1 binding
Molecule: PLHA-Pmab: "a mutation of the invariably required Ser-1 residue to Ala {PLHA-Pmab (SEQ ID NO: 20); in short, Pmab(S77A)}" (PLHA[Abu(3R-Me,4-PO3H2)])

- initial heats of interaction (Plk2 PBD): ~-1.1 kcal/mol
- increase of the level of Plk2 binding (Plk2; His-2 to Gln mutant versus PLHSpT): 24 fold
Molecule: PLQSpT: "mutation of the His-2 to Gln"; "the PLQSpT mutant" of parent PLHSpT (PLQS[pT])

- binding result (Flag-Plk3 (K52R)): no binding
B1: PEG-4j* (peptide)
peptide: {PEG}-PLH(Ph‑(CH2)8)S[Abu(3R-Me,4-PO3H2)]
modifications: reading uncertain
notes: T0009: Z = CH2, G = Ph-(CH2)8-, R1 = PEG; also called Cys-PEG-4j* (bead-immobilized form)

- binding result (Flag-Plk3 (K52R)): no binding
Molecule: Ac-PLH(Ph‑(CH2)8)S[pT] (also called peptide 4j; Compound 4j) [4j (Biological Example 1)]

- fold diminished binding affinity [5]: 20 fold
Molecule: Ac-PPHS[pT] [PPHSpT]
